Where a chain is given by its changes, count along the chain named.
T1: mouse CCR8 (mouse)
T1 chain: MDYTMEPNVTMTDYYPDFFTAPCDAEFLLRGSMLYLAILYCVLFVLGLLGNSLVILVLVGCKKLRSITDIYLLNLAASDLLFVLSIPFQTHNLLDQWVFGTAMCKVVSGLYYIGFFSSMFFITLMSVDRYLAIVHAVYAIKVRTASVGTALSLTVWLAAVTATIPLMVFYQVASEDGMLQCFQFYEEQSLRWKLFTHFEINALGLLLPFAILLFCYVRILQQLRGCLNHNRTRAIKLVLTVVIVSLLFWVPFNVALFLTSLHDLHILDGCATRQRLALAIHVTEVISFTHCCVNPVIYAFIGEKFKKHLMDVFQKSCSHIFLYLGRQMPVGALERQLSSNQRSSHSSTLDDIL

B1: 11F8-SG-11F8-DA (antibody, V domains shown)
VH: QVQLVESGGGVVQPGRSLRLSCAASGFTFSTYVMHWVRQAPGKGLEWVAVISYSGNNKYYADSVKGRFIISRDNSKNTLFLQMNSLRGEDTAVYYCARGRSYVNYYGLDVWGQGTTVTVSS
VL: DIVMTQTPLSLSVTPGQPASISCKSSQSLLYSDAKTYLYWYLQKPGQPPHLLIYEVSNRFSGVPKRFSGSGSGTDFTLKISRVEAEDVGVYYCMQSVKIPLTFGGGTKVEIK
B2: 11F8-11F5 (antibody, V domains shown)
VH: B1 VH with S54D
VL: B1 VL with A34G, P45A, H50Q, K65D, Y91F, V97L, I99V, L101P, G105Q, E110D
B3: 11F8-11B12 (antibody, V domains shown)
VH: B1 VH with S54D
VL: B1 VL with A34G, H50Q, L51I, Y54F, K65D, V97I, I99L
B4: 11F5-SG-11F5-DA (antibody, V domains shown)
VH: EVQLVESGGGVVQPGRSLRLSCAASGFTFSSYVVHWVRQAPGKGLEWVAVISYSGDNKFYADSVKGRFTISRDNSKNTLYLQMNSLRTEDTAVYYCARGRNYYYYYGLDVWGQGTTVTVSS
VL: B1 VL with P45A, H50Q, K65D, Y91F, V97L, I99V, L101P, G105Q, E110D
B5: 11B12-SG-11B12-SG (antibody, V domains shown)
VH: QVQLVESGGGVVQPGRSLRLSCAASGFSFSSYVMHWVRQAPGKGLEWVAVISYSGSDKYYADSVKGRFTISRDNSKNTLFLQMNSLRPEDTAVYYCARGRGYRYGQSYYYGMDVWGQGTTVTVSS
VL: B1 VL with D33S, A34G, H50Q, L51I, Y54F, K65D, V97I, I99L
B6: 11F8-AG-11F8-DA (antibody, V domains shown)
VH: B1 VH with S54A
VL: B1 VL
B7: 11F5-SG-11F5-AG (antibody, V domains shown)
VH: B4 VH
VL: DIVMTQTPLSLSVTPGQPASISCKSSQSLLYSAGKTYLYWYLQKAGQPPQLLIYEVSNRFSGVPDRFSGSGSGTDFTLKISRVEAEDVGVFYCMQSLKVPPTFGQGTKVDIK
B8: 11F5-DA-11F5-DA (antibody, V domains shown)
VH: B4 VH with S54D, G55A
VL: B7 VL with A33D, G34A
B9: 11F5-DA-11F5-AG (antibody, V domains shown)
VH: B4 VH with S54D, G55A
VL: B7 VL
B10: 11B12-AG-11B12-SG (antibody, V domains shown)
VH: B5 VH with S54A
VL: B1 VL with D33S, A34G, H50Q, L51I, Y54F, K65D, V97I, I99L
B11: 11B12-SG-11B12-DA (antibody, V domains shown)
VH: B5 VH
VL: B1 VL with H50Q, L51I, Y54F, K65D, V97I, I99L
B12: 11B12-11F5 (antibody, V domains shown)
VH: B5 VH with S54D
VL: B7 VL with A33D
B13: 11F8-SG-11F8-AG (antibody, V domains shown)
VH: B1 VH
VL: B1 VL with D33A, A34G
B14: 11F8-AG-11F8-SG (antibody, V domains shown)
VH: B1 VH with S54A
VL: B1 VL with D33S, A34G
B15: 11F5-11F8 (antibody, V domains shown)
VH: B4 VH with S54D
VL: B1 VL with A34G
B16: 11B12-SG-11B12-AG (antibody, V domains shown)
VH: B5 VH
VL: B1 VL with D33A, A34G, H50Q, L51I, Y54F, K65D, V97I, I99L
B17: 11F8-DA-11F8-DA (antibody, V domains shown)
VH: B1 VH with S54D, G55A
VL: B1 VL
B18: 11F8-AG-11F8-AG (antibody, V domains shown)
VH: B1 VH with S54A
VL: B1 VL with D33A, A34G
B19: 11B12-AG-11B12-DA (antibody, V domains shown)
VH: B5 VH with S54A
VL: B1 VL with H50Q, L51I, Y54F, K65D, V97I, I99L
B20: 11F8-DA-11F8-AG (antibody, V domains shown)
VH: B1 VH with S54D, G55A
VL: B1 VL with D33A, A34G
B21: 11F8-DA-11F8-SG (antibody, V domains shown)
VH: B1 VH with S54D, G55A
VL: B1 VL with D33S, A34G
B22: 11F5-DA-11F5-SG (antibody, V domains shown)
VH: B4 VH with S54D, G55A
VL: B7 VL with A33S

Molecular target: T1, mouse CCR8
Assay: FACS

Q: How did the EC50 turn out when B1 was run?
A: 0.173 mg/L

Q: Which EC50 does the source give for B2 here?
A: 0.116 mg/L

Q: Which EC50 does the source give for B3 here?
A: 0.155 mg/L

Q: How did the EC50 turn out when B4 was run?
A: 0.138 mg/L

Q: With B5 as the binder, how does the EC50 read?
A: 0.041 mg/L

Q: B6 was tested. Which EC50 did it give?
A: 0.171 mg/L

Q: With B7 as the binder, how does the EC50 read?
A: 0.092 mg/L

Q: Which EC50 does the source give for B8 here?
A: 0.253 mg/L

Q: How did the EC50 turn out when B9 was run?
A: 0.463 mg/L

Q: For B10, which EC50 is on record?
A: 0.038 mg/L

Q: B11 was tested. Which EC50 did it give?
A: 0.059 mg/L

Q: B12 was tested. Which EC50 did it give?
A: 0.171 mg/L

Q: B13 was tested. Which EC50 did it give?
A: 0.218 mg/L

Q: How did the EC50 turn out when B14 was run?
A: 0.149 mg/L

Q: B15 was tested. Which EC50 did it give?
A: 0.184 mg/L

Q: Which EC50 does the source give for B16 here?
A: 0.042 mg/L

Q: With B17 as the binder, how does the EC50 read?
A: 0.128 mg/L

Q: How did the EC50 turn out when B18 was run?
A: 0.148 mg/L

Q: How did the EC50 turn out when B19 was run?
A: 0.074 mg/L

molecular target: human CCR8 (human); assay: FACS
Sequence (chain, as listed by the source): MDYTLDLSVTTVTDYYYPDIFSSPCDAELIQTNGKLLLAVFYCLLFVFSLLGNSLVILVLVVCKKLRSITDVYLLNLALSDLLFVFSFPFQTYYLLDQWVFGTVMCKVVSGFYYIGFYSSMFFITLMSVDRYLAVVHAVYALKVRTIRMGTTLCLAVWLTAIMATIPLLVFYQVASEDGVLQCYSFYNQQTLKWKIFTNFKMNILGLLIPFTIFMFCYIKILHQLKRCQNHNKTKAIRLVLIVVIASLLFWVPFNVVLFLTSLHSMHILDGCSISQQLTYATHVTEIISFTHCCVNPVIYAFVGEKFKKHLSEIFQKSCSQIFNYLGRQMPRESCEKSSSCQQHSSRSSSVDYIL

Q: How did the EC50 turn out when B1 was run?
A: 0.049 mg/L

Q: How did the EC50 turn out when B2 was run?
A: 0.137 mg/L

Q: Which EC50 does the source give for B3 here?
A: 0.075 mg/L

Q: Which EC50 does the source give for B4 here?
A: 0.15 mg/L

Q: B5 was tested. Which EC50 did it give?
A: 0.048 mg/L

Q: B6 was tested. Which EC50 did it give?
A: 0.12 mg/L

Q: Which EC50 does the source give for B7 here?
A: 0.069 mg/L

Q: How did the EC50 turn out when B8 was run?
A: 0.392 mg/L

Q: With B10 as the binder, how does the EC50 read?
A: 0.043 mg/L

Q: Which EC50 does the source give for B20 here?
A: 0.076 mg/L

Q: Which EC50 does the source give for B11 here?
A: 0.064 mg/L

Q: Which EC50 does the source give for B21 here?
A: 0.154 mg/L

Q: For B12, which EC50 is on record?
A: 0.298 mg/L

Q: With B13 as the binder, how does the EC50 read?
A: 0.05 mg/L

Q: Which EC50 does the source give for B15 here?
A: 0.162 mg/L

Q: With B16 as the binder, how does the EC50 read?
A: 0.047 mg/L

Q: B17 was tested. Which EC50 did it give?
A: 0.222 mg/L

Q: Which EC50 does the source give for B18 here?
A: 0.033 mg/L

Q: For B19, which EC50 is on record?
A: 0.073 mg/L

Q: With B22 as the binder, how does the EC50 read?
A: 0.124 mg/L

— patent publication US20260337282 (published 2026)
